Reference: patent US20160348147A1, “SYSTEMS AND DEVICES FOR PROTEASE DETECTION BASED ON ENGINEERED POLYMERS AND BIOPOLYMERS AND METHODS OF USE” (DUKE UNIVERSITY, priority 2014, published 2016)

Target: ELP-substrate fusion M(GVGVP)60…
Assay: cell-based or functional assay

Sequence of ELP-substrate fusion M(GVGVP)60… (chain, as listed by the source): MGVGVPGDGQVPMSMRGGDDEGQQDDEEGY

aggregation time (optical density versus time), 50 ng/mL MMP-1, without inhibitor: < 50 min
Substance: Human MMP-1 catalytic domain (recombinant, produced in E. coli, 19.9 kDa) (from UniProt P03956 100-269) (enzyme)
